B1: Cullin-3A (Arabidopsis thaliana (Mouse-ear cress)), Q9ZVH4 (parent)
chain: MSNQKKRNFQIEAFKHRVVVDPKYADKTWQILERAIHQIYNQDASGLSFEELYRNAYNMVLHKFGEKLYTGFIATMTSHLKEKSKLIEAAQGGSFLEELNKKWNEHNKALEMIRDILMYMDRTYIESTKKTHVHPMGLNLWRDNVVHFTKIHTRLLNTLLDLVQKERIGEVIDRGLMRNVIKMFMDLGESVYQEDFEKPFLDASSEFYKVESQEFIESCDCGDYLKKSEKRLTEEIERVAHYLDAKSEEKITSVVEKEMIANHMQRLVHMENSGLVNMLLNDKYEDLGRMYNLFRRVTNGLVTVRDVMTSHLREMGKQLVTDPEKSKDPVEFVQRLLDERDKYDKIINTAFGNDKTFQNALNSSFEYFINLNARSPEFISLFVDDKLRKGLKGITDVDVEVILDKVMMLFRYLQEKDVFEKYYKQHLAKRLLSGKTVSDDAERSLIVKLKTECGYQFTSKLEGMFTDMKTSEDTMRGFYGSHPELSEGPTLIVQVLTTGSWPTQPAVPCNLPAEVSVLCEKFRSYYLGTHTGRRLSWQTNMGTADIKAIFGKGQKHELNVSTFQMCVLMLFNNSDRLSYKEIEQATEIPAADLKRCLQSLACVKGKNVIKKEPMSKDIGEEDLFVVNDKFTSKFYKVKIGTVVAQKETEPEKQETRQRVEEDRKPQIEAAIVRIMKSRKILDHNNIIAEVTKQLQPRFLANPTEIKKRIESLIERDFLERDSTDRKLYRYLA
partner: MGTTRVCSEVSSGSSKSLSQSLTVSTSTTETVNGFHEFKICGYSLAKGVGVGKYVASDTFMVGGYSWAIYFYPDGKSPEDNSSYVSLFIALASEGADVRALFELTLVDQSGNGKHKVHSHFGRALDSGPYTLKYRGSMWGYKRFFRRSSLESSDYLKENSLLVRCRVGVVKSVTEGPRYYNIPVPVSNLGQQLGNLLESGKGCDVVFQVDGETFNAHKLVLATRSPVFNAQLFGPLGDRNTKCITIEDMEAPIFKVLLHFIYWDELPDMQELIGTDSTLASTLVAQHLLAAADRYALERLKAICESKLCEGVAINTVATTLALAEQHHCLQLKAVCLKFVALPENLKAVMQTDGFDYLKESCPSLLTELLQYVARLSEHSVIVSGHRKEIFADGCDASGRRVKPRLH
B2: BTB/POZ and MATH domain-containing protein 1 (Arabidopsis thaliana (Mouse-ear cress)), Q8L765 (parent)
chain: B1 partner
partner: B1 chain

Variants of: B1
Conditions: with bpm1_arath BPM1, Q8L765

| Variant | effect of a mutation on the interaction |
| --- | --- |
| S48A;F49A | decreasing interaction |

Variants of: B2
Conditions: with cul3a_arath CUL3A, Q9ZVH4

| Variant | effect of a mutation on the interaction |
| --- | --- |
| D293A | decreasing interaction |
| Y295A | decreasing interaction |
| D204A | decreasing interaction |

Source: IntAct's records for PubMed 15618422
